# Experimental data taken from US20130122005A1 (published 2013).
# Substitutions are numbered along the chain they refer to.
# B1: antibody 60833 (antibody, human IgG1, lambda, V domains shown)
# VH: QVELVESGGGLVQPGGSLRLSCAASGFTFTSYWMSWVRQAPGKGLELVSSITSYGSFTYYADSVKGRFTISRDNSKNTLYLQMNSLRAEDTAVYYCARNMYTHFDSWGQGTLVTVSS
# VL: DIVLTQPPSVSGAPGQRVTISCSGSSSNIGSNSVSWYQQLPGTAPKLLIYDNSKRPSGVPDRFSGSKSGTSASLAITGLQSEDEADYYCQSRDTYGYYWVFGGGTKLTVLG
# B2: antibody 60814 (antibody, human IgG1, lambda, V domains shown)
# VH: QVELVESGGGLVQPGGSLRLSCAASGFTFSNYWMHWVRQAPGKGLEWVSGISGWSSWTYYADSVKGRFTISRDNSKNTLYLQMNSLRAEDTAVYYCARFGIDAYTKVYFDYWGQGTLVTVSS
# VL: DIELTQPPSVSVAPGQTARISCSGDNIPLKYVSWYQQKPGQAPVLVIHDDNKRPSGIPERFSGSNSGNTATLTISGTQAEDEADYYCSSWDTLDIFNVFGGGTKLTVLG
# B3: antibody 60819 (antibody, human IgG1, lambda, V domains shown)
# VH: B2 VH
# VL: B2 VL with S88Q, W90Y, T92Y, L93F, D94P, I95K, N97V
# Columns and labels:
# Assay in all cases: cell-based or functional assay
# human IGF-1 [1] = biological target: T1, human IGF-1 (human, UniProt P05019 49-118)
# human IGF-2 [2] = biological target: T2, human IGF-2 (human, UniProt P01344 25-91)
# human IGF-2 [3] = biological target: T2, human IGF-2; remark: listed apart in the source
# human IGF-1 [4] = biological target: T1, human IGF-1; remark: listed apart in the source
# human IGF-2 [5] = biological target: T2, human IGF-2; remark: listed apart in the source
# T1 sequence (P05019 49-118): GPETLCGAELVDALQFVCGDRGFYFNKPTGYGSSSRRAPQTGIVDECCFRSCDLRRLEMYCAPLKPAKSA
# T2 sequence (P01344 25-91 limits assumed): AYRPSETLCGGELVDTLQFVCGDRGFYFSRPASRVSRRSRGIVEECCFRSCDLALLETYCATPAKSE
Binder,"IC50, IGF-1 (20 ng/mL) induced IGF-1R phosphorylation, cell-based ELISA (human IGF-1 [1]) [µg/mL]","IC50, IGF-2 (100 ng/mL) induced IGF-1R phosphorylation, cell-based ELISA (human IGF-2 [2]) [µg/mL]","IC50, IGF-2 (100 ng/mL) induced IR-A phosphorylation, cell-based ELISA (human IGF-2 [3]) [µg/mL]","IC50, IGF-1 induced COLO-205 cell proliferation (human IGF-1 [4]) [µg/mL]","IC50, IGF-1 induced MCF7 cell proliferation (human IGF-1 [4]) [µg/mL]","IC50, IGF-2 induced COLO 205 cell proliferation (human IGF-2 [5]) [µg/mL]","IC50, IGF-2 induced MCF7 cell proliferation (human IGF-2 [5]) [µg/mL]"
B1,0.09,1.12,0.82,0.165,0.0386,0.632,0.0812
B2,,,,0.135,0.0241,0.576,0.0782
B3,,,,0.217,0.054,0.101,0.0408
